{
  "source": "patent US20070141652",
  "key": {"[1]": {"molecular_target": "purified wild-type Xenopus TPX2 (GST tag removed)"}, "[2]": {"molecular_target": "ΔNTPX2 (Xenopus TPX2 with amino acid 1 to 40 deleted, GST tag removed)"}},
  "data": [
    {"protein": "Xenopus Aurora A kinase (AurA, also called Eg2), endogenous in egg extracts (protein) MERAVKENHKPSNVKIFHPMTEGAKRIPVNQPQSTQFRPPGTAVSAQRILGPSNVPQRVLAQAQKPILSSQKPTTQIPLRPATQGHQSSKPQGPNENRNPQQTSHSSTPNVEKKGSTDQGKTSAVPKEEGKKKQWCLEDFEIGRPLGKGKFGNVYLARERESKFILALKVLFKSQLEKAGVEHQLRREVEIQSHLRHPNILRLYGYFHDASRVYLILDYAPGGELFRELQKCTRFDDQRSAMYIKQLAEALLYCHSKKVIHRDIKPENLLLGSNGELKIADFGWSVHAPSSRRTTLCGTLDYLPPEMIEGRMHDETVDLWSLGVLCYEFLVGKPPFETDTHQETYRRISKVEFQYPPYVSEEARDLVSKLLKHNPNHRLPLKGVLEHPWIIKNSQLKKKDEPLPGAQ", "values": [
      {"measurement": "AurA activation, as determined by autophosphorylation of the activation loop at threonine 295 of AurA with antibody recognizing phospho-T295", "setting": "[1]", "result": "RanGTP-induced AurA activation in TPX2-depleted egg extracts could be rescued by adding purified wild-type TPX2"},
      {"measurement": "AurA activation, as determined by autophosphorylation of the activation loop at threonine 295 of AurA with antibody recognizing phospho-T295", "setting": "[2]", "result": "AurA activation was either completely lacking or slightly enhanced compared to the TPX2-depleted egg extract"}
    ]}
  ]
}
